This data set deals with T1, TATA-binding protein (TBP) (UniProt P13393 P13393:1-240).
T1 sequence: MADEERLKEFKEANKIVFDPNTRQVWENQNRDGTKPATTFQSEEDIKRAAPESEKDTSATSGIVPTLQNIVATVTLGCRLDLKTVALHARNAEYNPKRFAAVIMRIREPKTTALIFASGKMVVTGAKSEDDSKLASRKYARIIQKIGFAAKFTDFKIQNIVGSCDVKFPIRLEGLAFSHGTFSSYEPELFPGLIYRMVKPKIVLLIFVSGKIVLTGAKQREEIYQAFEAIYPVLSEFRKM
As to the kind of experiment: fluorescence microscopy of TBP in sol-gel; binding buffer 25 mM Tris pH 8, 100 mM NaCl, 25 mM KCl, 10 mM MgCl2. The conditions noted are these: tags: His-tag, full length, expressed in E. coli BL21-DE3; label: 5'-Cy3 on top strand. How it is done: Sol-gels with TBP were enclosed with the PDMS lid. After encapsulation, the channels were washed extensively with the PBS buffer (binding buffer) by connecting one end of the main channel to a syringe pump (Pump 11, Harvard Apparatus, Holliston, Mass.). Following the pre-washing step, the silicate gel spot was blocked for 1 hour with 1× binding buffer that contained 25 mM Tris-Cl (pH 8), 100 mM NaCl, 25 mM KCl and 10 mM MgCl₂ with 5% skim milk. The blocking buffer works as a nonspecific competitor in the reaction mixture, which helps to achieve the selection of high-affinity molecules. […] After binding, the interaction of immobilized TBP proteins and Cy-3 labeled TATA DNA was monitored by fluorescence microscopy.
The Cy-3-labeled TATA DNA has a high affinity for TBP similar to that of the conventionally selected aptamers. […] The measured melting point of TATA DNA was 72° C. […] The fluorescence intensity of the sol-gel except for the negative sol-gel was detected under the fluorescent microscope (FIG. 6).

The results in this text go back to patent publication US20120028811, “DEVICE FOR RAPID IDENTIFICATION OF NUCLEIC ACIDS FOR BINDING TO SPECIFIC CHEMICAL TARGETS” (DONGGUK UNIVERSITY, published 2012).

B1: TATA DNA (dsDNA)
DNA 1: GGGAATTCGGGCTATAAAAGGGGGATCCGG
DNA 2: CCGGATCCCCCTTTTATAGCCCGAATTCCC
Consider B1, for which the binding result is “binds”.
